Data on 1 substance can be found in PMC5000626, “Urinary Dopamine as a Potential Index of the Transport Activity of Multidrug and Toxin Extrusion in the Kidney” (International Journal of Molecular Sciences, 2016).

This data set relates to NCCc1ccc(O)c(O)c1. The data set can be described thus: cells, lysate or membranes. Conditions: other: [3H]dopamine uptake at 1 min, HEK293 cells expressing hMATE2-K, mean ± S.E., n=3; pH 7.4; 37.0 °C.

Sequence of hMATE2-K (Homo sapiens) (chain, as listed by the source): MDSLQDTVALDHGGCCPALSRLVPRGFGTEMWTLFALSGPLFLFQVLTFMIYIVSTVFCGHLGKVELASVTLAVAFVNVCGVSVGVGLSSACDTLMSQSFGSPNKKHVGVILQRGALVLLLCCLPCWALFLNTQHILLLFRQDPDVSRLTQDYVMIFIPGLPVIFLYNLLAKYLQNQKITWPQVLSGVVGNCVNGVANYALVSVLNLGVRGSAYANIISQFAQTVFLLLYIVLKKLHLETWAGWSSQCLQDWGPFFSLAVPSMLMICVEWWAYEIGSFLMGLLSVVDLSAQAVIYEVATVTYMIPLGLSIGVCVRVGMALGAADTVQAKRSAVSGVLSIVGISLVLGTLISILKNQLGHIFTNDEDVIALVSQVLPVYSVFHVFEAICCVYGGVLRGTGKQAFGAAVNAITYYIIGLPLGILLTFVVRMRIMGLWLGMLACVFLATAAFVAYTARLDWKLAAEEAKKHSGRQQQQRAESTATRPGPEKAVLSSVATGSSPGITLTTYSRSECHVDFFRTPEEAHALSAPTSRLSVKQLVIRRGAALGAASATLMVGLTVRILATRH

With hMATE2-K (Homo sapiens), the Michaelis constant (Km) is 2480 ± 650 µM.
